# Experiment: soluble on expression in E. coli; label from the status in PepcDB or PDB records
row,Sequence,soluble on expression in E. coli
1,MSLEFANFDSDLQYFLFQHIAVLLTANTKYRRALLLYGGAKNGKSVFINLVRSFFYSEDIVSKALNELQGRFDKESLVGKKLMASDEIGESRIQEKIVNDLKKLVSVEPVHVDRKGKTQVETTLDLKLAFGTNARLNFPSAHAKALERRIAVIPCEYYVEKADPDLIEKLQDEKKEIFLYLMYVYKQIVKNDIEYLQNDRVTEISHDWLNFGYEFVSSKSASIANQKACINLLRKLIEIKPGSRIKVSELNKVINEEIKVSSQVIKQLIQANFDTQTKLYNGYDYWIDLGWKEADKKEIHDISKKDNIISLDKNENITDDETLDEENLDFDWEDFDDEGHHHHHH,not soluble
2,MREYKLVVLGSGGVGKSALTVQFVQGIFVDEYDPTIEDSYRKQVEVDCQQCMLEILDTAGTEQFTAMRDLYMKNGQGFALVYSITAQSTFNDLQDLREQILRVKDTEDVPMILVGNKCDLEDERVVGKEQGQNLARQWCNCAFLESSAKSKINVNEIFYDLVRQINR,soluble
3,GMADKTGTPHPLTEPGVWIERIGGRVFPPHLPALFLDRDGTINVDTDYPSDPAEIVLRPQMLPAIATANRAGIPVVVVTNQSGIARGYFGWSAFAAVNGRVLELLREEGVFVDMVLACAYHEAGVGPLAIPDHPMRKPNPGMLVEAGKRLALDLQRSLIVGDKLADMQAGKRAGLAQGWLVDGEAAVQPGFAIRPLRDSSELGDLLAAIETLGRDNRS,soluble
4,MAHHHHHHMIENLQNCKKLRLLELGYNKIRMIENIEHLTNLEELWLGKNKIEQINLPYLPKLKKLSVQHNRLTDICEKSIKNILCVEELYISYNKINHIIDTFKDLKHLKVFDLSYNEINNISICSYLKSLEELWLNNNNIDNLEMIKKLSTIENLKTLYLEKNKIQDNLKENYRKTIIHILPQLKQLDALPIPSSPTLQK,not soluble
5,MWHIFERFVNEYERWFLVHRFAYLSELQAVKCLLPEGRGVEIGVGTGRFAVPLKIKIGVEPSERMAEIARKRGVFVLKGTAENLPLKDESFDFALMVTTICFVDDPERALKEAYRILKKGGYLIVGIVDRESFLGREYEKNKEKSVFYKNARFFSTEELMDLMRKAGFEEFKVVQTLFKHPSELSEIEPVKEGYGEGAFVVIRGTKK,soluble
6,MTQNTKLRPITPEFDPWEAYMDVDQYGDMQLTNVEFTTTTLCNMRCEHCAVGYTLQPKDPNALPIDLLLKRLEEIPRLRSISITGGEPMLSLKSVKEYVVPLLKYAHERGVRTQINSNLTLDIERYEWIIPYLDVLHISHNWGTVEDFAEIGFA,not soluble
7,MDYTIVVSATASDAAPLKFLAPYSGCAIGEHFLDNGKHALIIFDDLSKKAANCHVVCRTDEIELDILNRMEEDIKLHPLTWYDIWSSLETKIKVVRARIPKSLSRR,not soluble
8,MASASRLPPLPALRDFIHMYRLRAKKILSQNYLMDMNITRKIAKHAKVIEKDWVIEIGPGPGGITRAILEAGASRLDVVEIDNRFIPPLQHLAEAADSRMFIHHQDALRTEIGDIWKNETARPESVDWHDSNLPAMHVIGNLPFNIASPLIIKYLRDMSYRRGVWQYGRVPLTLTFQLEVAKRLCSPIACDTRSRISIMSQYVAEPKMVFQISGSCFVPRPQVDVGVVRFVPRKTPLVNTSFEVLEKVCRQVFHYRQKYVTKGLKTLYPEELEDELSDDLLKKCRIDPTTTSIRLGIEQFADLAEGYNEQCIRYPGLFLYDYTNKLHNLEDLSKEPNALPPPVPIFAPAPTIDSADNTWSLKNFNCS,not soluble
9,MQEQLEKMFFLSAEFVEAVDARGMTEREKNVFFDTELFCKRYVKEVRPGEIGCTLSHQKCYRKLVESRDKYALILEDDIVIRHNIDTLVPEIEKLLNTDEPRVILLSGWYWYLGTKTIKQHYCLARVYDAFLTHAYIINREAASLLIEQRPFITADDWFYIRKKGVKLYAVLPHLLDQDWSGEYPTSINQEEKKRCPGLWKRKIEICFHSLLLKFLYIIKRFEKALEHHHHHH,not soluble
10,MRGSHHHHHHGSDPAPDAVAQQWAIFRAKYLRPSGRVVDTGNGGESHSEGQGYGMLFAASAGDLASFQSMWMWARTNLQHTNDKLFSWRFLKGHQPPVPDKNNATDGDLLIALALGRAGKRFQRPDYIQDAMAIYGDVLNLMTMKAGPYVVLMPGAVGFTKKDSVILNLSYYVMPSLLQAFDLTADPRWRQVMEDGIRLVSAGRFGQWRLPPDWLAVNRATGALSIASGWPPRFSYDAIRVPLYFYWAHMLAPNVLADFTRFWNNFGANALPGWVDLTTGARSPYNAPPGYLAVAECTGLDSAGELPTLDHAPDYYSAALTLLVYIARAEETIK,soluble
11,MVLQIMLLTKPVPLYPPYIDLCDFDFDDYPQLDKIFSSNEPWWLEQFNWGKIFLTYIGRNKSAHTYERFRNDVERFLLWSFIVKKKPIDQLRKSDLLEYADFCWQPPVDWIGTSNQERFKITNGYSAANELWFPYKIQAPKSLKSQFVIDKKKYRPSQQTLSSMFTAIIVFYNYLMAEDFCIGNPAQIAKKDCRHFIIDSQVKEIKRLTGSQWQFVLDTAVEMADENAMFERNLFVIASLKTLFLRISELSERPNWSPTMGHFWQDDDENWWLKIFGKSRKLRDITVPIDFLPFLERYRASRGLLGLPSSNENSILVEKVRGQGGMTSRHLRRLVQSVFDQAHENMRRSEGENKALKLKEASAHWLRHTGASMEIERGRPLKDISEDLGHASMATTDTVYVQSENKKRAESGKRRKVD,not soluble
12,MKFIDEYRDPARARALLDRIRQVARHDWTIMEICGGQTHSILRNGIDQLLPPNVQLVHGPGCPVCVTPLETIERALAIAARPNTILTSFGDMLRVPGNSKDLFMARSEGADVRVVFSPLEALQIARDNPSKEVVFLGVGFETTAPANAMAVHQAAREGLTNFSELVSQVMVPPAMRAMLSSPGNRVQGFLAAGHVCAIMGYEEYEPVAAEFGVPIVPAGFEPVDLLDAILKTVELLEAGRSGVVNAYGRVVSREGNPEARRVMQEVFEVADRPWRGIGVIPASGLVLRPEYKRFDAEKRFDVGHIAPQESPLCRSGEVLQGHLKPSDCPAFGKECTPQTPFGATMVSSEGACAAYYRYHRNSNT,soluble
13,SLLTALTADNQELFSLIDCSIDELTQIRSEQAFVCPMCHQSVILKAGPIKIPHFAHRKKNSCWYEAEAETEEHLRLKQLFAEKCLREKLSFQVEAYLPTLKQRPDLLIGKIAIEIQCSPLPIKRLVERTETYQTHGYQVVWILGERLVPKDKLTQLTKQFLYFSESLGFYLWSANKKQERIELLCHIEESQCQQFYRRKQSWDFYEKQLLEIFRLPTANLNLLPDRRHTGQLMHDYYQKLTQQLGYRNAQLLRTQSFLYTKGCHLLQLPPWFYYPGLKLIPSSEEDIHLKMLVWEALKTEEERLVTKQELWRILEAIFLEEGNFVWQPLPNIGLKKLFKIVGNNLLRWLQECYVLIKVNNKYLITSIFLREDPEKLIHWLKKVKKQHFFSHTC,soluble
14,MKALHFGAGNIGRGFIGKLLADAGIELTFADVNQTVLDALNARHSYQVHVVGENEQVDTVSGVNAVSSIGDEVVDLIAEVDLVTTAVGPVVLERIAPAIAKGLAQRKAQGTERPLNIIACENMVRGTTQLKGHVFNALAEEHKAWVEAHIGFVDSAVDRIVPPSASATHDPLEVTVETFSEWIVDKTQFKGALPTIPGMELTDNLMAFVERKLFTLNTGHAITAYLGKLAGHQTIRDAILDEKIRAVVQGAMEESGAVLIKRYAFDPQKHAAYIQKILGRFENPYLKDDVERVGRQPLRKLSAGDRLIKPLLGTLEYGLPHRNLVKGIAAAMHFRSEDDPQAQELAALIADKGPQAALAQISGLDAASDVVAEAVNDYNAEK,not soluble
15,MKLYQHIETLWDYMQLKQDLKPADCLFVMCSNDVRVAEHAAALYHQKLAPLIVFSGGEGRFTDGLFEKSEAETFADIARLAGVPSDAILVETRSTNSGENVRFTEQLLKEKGIQCESIILVQKPFMERRAIATFEKQWQSPYSQVQVSSTAHPFFEYINEDMPLMMVLEALMEDFSRVKSYPEKGFQTKQDIPNQVDSSYQVLLERFGFDLVLEHHHHHH,not soluble
16,MFAIQPGLAEGGQFLGDPPPGLCQPELQPDSNSNFMASAKDANENWHGMPGRVEPILRRSSSESPSDNQAFQAPGSPEEGVRSPPEGAEIPGAEPEKMGGAGTVCSPLEDNGYASSSLSIDSRSSSPEPACGTPRGPGPPDPLLPSVAQAVQHLQVQERYKEQEKEKHHVHLVMYRRLALLQWIRGLQHQLIDQQARLQESFDTILDNRKELIRCLQQRAAPSRPQDQA,soluble
17,MTVYKGSKKEAKPKECLLFFDKKTNTVRLEKITSNINVKKTRDLDQGTELALKRGIERLRTSSNNQRSGPSSPEEKAKIQKQMQRDTSDSSSDSDGSSDSDKSNGDSSDDEDESEKILLEEMKKPKPYTEREPAPPSSSNTYNHKESHVAPYISSSGNKNKDSEEKYGLALSESSDEDD,not soluble
18,MAHHHHHHMRVYECDFYSHPAVCKYRLPKPYRHPTLDKRLREQRSVREARALVRCQKQGIAVPAVYAIDRESCAIVMERIIGMSVRDVLNEAQRPLEGAVSPVAARLLEGMGEVVGLLHNAHIIHGDLTTSNFMYRTATVAEGKADSAACGAAPRDRLVVLDFGLVMDKNSAEERAVDLYVLERAIKSSHPSLEGVASAFILNGYRRTADPHQVEATITRLGAVRARGRKRSMVG,not soluble
19,MSLTFSILAHDPETGAIGGAAATGSLCVGGWVLRGDLNAGMSASQGAAPSTFWGEEVLQHLRDGSHPEDAVNHVTSQDSGRAYRQLAAMDLLGNAAAFTGSENQDIKGSVTFASGIASGNMLGDNSVLGAMTEAFVASDLTFERRLLAALIAAEGAGSDFRGLLSAAMLVLHPDRPPVTLRIDYHPDNPIGALEQLYQKATTGDYADWARQVPVLSDKERILDEGHHHHHH,soluble
20,MAHHHHHHMLLFKRPHLRACESHADIAVDLAPLSQLRNYAEFEELLREELQKIYGNAPAEFHGVITYSTRDAPQSFRGCFTERQLETLHQYDAAVEKINHLSSEYRVALEEHERLVEGNKDRKPTQKRIREEEKSRKRLRAMKREVVAAEYNKECLSLKLKNLFSIDVIRVPLH,soluble
21,SLVYDGNNKLIADLGSEKRESVSADSIPLNLVNAITSIEDKRFFKHRGVDIYRILGAAWHNLVSSNTQGGSTLDQQLIKLAYFSTNKSDQTLKRKSQEVWLALQMERKYTKEEILTFYINKVYMGNGNYGMRTTAKSYFGKDLKELSIAQLALLAGIPQAPTQYDPYKNP,not soluble
22,MGSDKIHHHHHHMSKVFIVGAAGNVGRRLTQQLAQRGHTLMAMHRHPDQADAIQAAGGVSVLGDITQISATDLATLMSGNDAIVFSAGAGGKGIQLTNDVDGKGLELAVEAAQLAGIQRFILVSVFPDALRGGSVSASFENYMLVKKHADVHLVSTDLDWVILRPGTLLDEVGTGKVNAAVAIPYGSVSRDDVAATLVELIEQPKVNRIIIELTQGEIPINDAISRLVAQ,not soluble
23,MKVAILGYGTVGSAVVKFLLENDKLIRARCGQSITPVIALARSPKKNALIPITHSVAEILNADVDVFVELMGGVDEAFKIVSEILKKKKAVVTANKAMLAYHRYELENLAKNLAFGYEASVAGGIPIIKVLKEGLSANNILAIKGILNGTSNYILSSMSQKNMSFKQALQIAQNLGYAEADPTFDIEGQDAAHKLLVLSSIAYNLKAKPEDILIEGISEIAPEDMYFANEFEFTIKLLGIAKVRENKVELRVHPTMIDKEKMLAKVDGVMNAISINGDLLGESLYYGAGAGGEATASAVISDLMDIARDQVKAPMLGFVNTLEYKLLSKDEIYTKYYLRVKVEDKIGILSKITQLMSENNISIDSFLQKPKKNDENYSTLFFTTHLTYEKSIQNLLEILRKQDFIKTKPFMMRIE,not soluble
